B1: anti-GRP78 antibody clone B4 (antibody, IgG1, V domains shown)
VH: QVRLQESGPGLVKPSQTLSLTCTVSGGSISSGGYYWSWIRQHPGKGLEWIGYIYYSGSTYYNPSLESRVTISVDTSKNQFSLKLSSVTAADTAVYYCARYSSIDAFEIWGQGTMVTVSS
VL: SYVLTQPPSVSVAPGKTATITCGGDDIGSKSVHWYQQKPGQAPVLVVYDDGDRPSGIPERFSGSNSGNTATLAISRVEAGDEADYYCQVWDSSSDQYVFGSGTKLTVL
notes: Fully human mAb formatted as full-length IgG1; also called B4 mAb
B2: anti-GRP78 antibody clone F6 (antibody, IgG1, V domains shown)
VH: QVQLQQSGPGLVKPPQTLSLTCAISGDSVSSNSAAWNWIRQSPSRGLEWLGRTYYRSKWYNDYAVSVKSRITINPDTSKNQFSLQLNSVTPEDTAVYYCARDPYYYDSSGYYYFDAFDIWGQGTMVTVSS
VL: SYELTQPHSVSVAPGQTARITCGGDNIGSKSVHWYQQRPGQAPVLVVYDDSDRPSGIPERFSGSNSENTATLTISGVEAGDEADYYCQVWDSTSHHVVFGGGTKLTVL
notes: Fully human mAb formatted as full-length IgG1; also called F6 mAb; Anti-GRP78 (F6)

Experiments:
Assay in all cases: alanine scan, high-throughput flow cytometry
[1] = molecular target: T1, GRP78 alanine scan variant R261A (human, UniProt P11021 19-654)
T1 construct: Member of the GRP78 alanine scan library
T1 sequence (P11021 19-654 R261A limits assumed): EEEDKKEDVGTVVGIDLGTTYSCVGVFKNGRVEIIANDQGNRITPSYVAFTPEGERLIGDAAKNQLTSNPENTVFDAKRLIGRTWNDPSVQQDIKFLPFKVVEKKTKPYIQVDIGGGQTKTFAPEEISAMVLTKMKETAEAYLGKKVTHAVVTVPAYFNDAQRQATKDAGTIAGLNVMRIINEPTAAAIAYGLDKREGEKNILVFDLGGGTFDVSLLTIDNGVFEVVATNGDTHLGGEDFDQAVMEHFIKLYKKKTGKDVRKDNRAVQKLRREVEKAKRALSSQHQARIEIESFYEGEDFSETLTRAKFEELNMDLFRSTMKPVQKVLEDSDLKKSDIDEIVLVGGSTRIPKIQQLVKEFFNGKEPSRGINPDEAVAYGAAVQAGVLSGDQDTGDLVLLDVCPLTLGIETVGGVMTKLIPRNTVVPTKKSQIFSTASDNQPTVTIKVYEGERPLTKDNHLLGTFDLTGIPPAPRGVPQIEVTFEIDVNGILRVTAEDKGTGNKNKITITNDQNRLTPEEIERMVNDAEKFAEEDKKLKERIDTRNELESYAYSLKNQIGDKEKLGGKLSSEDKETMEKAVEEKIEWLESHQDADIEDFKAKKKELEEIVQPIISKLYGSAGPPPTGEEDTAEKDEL
Description: (§1) To characterize the binding properties of the antibodies described in Example 1 for GRP78, epitope mapping analysis was carried out by alanine scan mutagenesis. An alanine scan library of GRP78 was constructed. Each anti-GRP78 antibody was then screened for binding to each individual GRP78 variant, allowing identification of the target protein residues involved in antibody binding.
(§2) Binding of each test antibody to each GRP78 variant in the alanine scanning library was determined by high-throughput flow cytometry under high stringency conditions (e.g., increased pH, increased salinity, increased temperature and/or increased wash time). Also included in the experiment was a commercially-available monoclonal antibody, 1H11-1H7, which was verified to bind to WT GFR78 on cells and thus determined to be a suitable positive control under these conditions (Thermo Fisher Scientific, Waltham, MA). Antibody binding to each of the GRP78 variant as measured by the fluorescence signal (raw fluorescence data minus the background), was normalized to its binding to the wildtype (WT) GRP78. For each GRP78 variant, such normalized binding to the test antibodies was plotted relative to that to the control antibody.

[2] = molecular target: T2, GRP78 alanine scan variant H265A (human, UniProt P11021 19-654)
T2 construct: Member of the GRP78 alanine scan library
T2 sequence (P11021 19-654 H265A limits assumed): as the sequence (P11021 19-654 R261A limits assumed) above, with A243R, H247A counted along it
Description: as §1, §2

[3] = molecular target: T3, GRP78 alanine scan variant E329A (human, UniProt P11021 19-654)
T3 construct: Member of the GRP78 alanine scan library
T3 sequence (P11021 19-654 E329A limits assumed): as the sequence (P11021 19-654 R261A limits assumed) above, with A243R, E311A counted along it
Description: as §1, §2

[4] = molecular target: T4, GRP78 alanine scan variant R279A (human, UniProt P11021 19-654)
T4 construct: Member of the GRP78 alanine scan library
T4 sequence (P11021 19-654 R279A limits assumed): as the sequence (P11021 19-654 R261A limits assumed) above, with A243R, R261A counted along it
Description: as §1, §2

Binder | binding normalized to wildtype (WT) GRP78 [1] [%] | binding normalized to wildtype (WT) GRP78 [2] [%] | binding normalized to wildtype (WT) GRP78 [3] [%] | binding normalized to wildtype (WT) GRP78 [4] [%]
B1 | < 20 | < 20 | < 20 | 
B2 | < 20 |  |  | < 20

Source: patent publication US20240010714A1 (MBRACE THERAPEUTICS, published 2024)
